Measured values: patent US20070224180
Marks after values point to notes of the source that are not given here.

Experiments:
PACAP(1-27) = biological target: T1, PACAP(1-27)
T1 chain: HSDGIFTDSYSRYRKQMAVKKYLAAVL

[1] = biological target: T2, big endothelin (Big ET-1), P05305
T2 chain: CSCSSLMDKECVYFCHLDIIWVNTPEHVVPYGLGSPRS

[2] = biological target: T3, Fluorescence-quenched Big-ET-1 analogue (17 aa Big-ET)
T3 chain: DIAWFXTPEHVVPYGLG

substance P, P20366 = biological target: T4, substance P, P20366
T4 chain: RPKPQQFFGLM

[3] = biological target: T5, endothelin (ET-1), P05305
T5 chain: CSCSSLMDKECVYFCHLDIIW

[4] = biological target: T6, atrial natriuretic peptide (ANP), P01160
T6 chain: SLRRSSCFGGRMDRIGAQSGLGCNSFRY

Sequence of bradykinin, P01042 (P01042 whole entry, looked up): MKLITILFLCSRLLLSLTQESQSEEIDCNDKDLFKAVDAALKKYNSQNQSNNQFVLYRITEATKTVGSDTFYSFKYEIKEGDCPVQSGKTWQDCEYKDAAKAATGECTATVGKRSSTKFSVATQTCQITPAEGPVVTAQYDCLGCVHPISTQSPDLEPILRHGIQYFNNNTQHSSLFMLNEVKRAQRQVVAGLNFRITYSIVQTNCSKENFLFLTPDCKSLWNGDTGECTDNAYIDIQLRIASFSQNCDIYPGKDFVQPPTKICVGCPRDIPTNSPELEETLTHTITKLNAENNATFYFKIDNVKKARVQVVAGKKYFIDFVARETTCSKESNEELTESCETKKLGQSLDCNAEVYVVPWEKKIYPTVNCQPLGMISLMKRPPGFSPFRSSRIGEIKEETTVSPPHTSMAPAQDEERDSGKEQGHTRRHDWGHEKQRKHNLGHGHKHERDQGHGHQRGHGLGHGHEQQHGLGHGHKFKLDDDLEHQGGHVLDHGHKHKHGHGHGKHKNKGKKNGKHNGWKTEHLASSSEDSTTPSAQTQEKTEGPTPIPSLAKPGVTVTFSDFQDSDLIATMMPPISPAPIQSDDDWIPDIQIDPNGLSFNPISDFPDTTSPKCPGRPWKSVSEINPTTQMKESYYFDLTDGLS
Sequence of angiotensin-1, P01019 (P01019 whole entry, looked up): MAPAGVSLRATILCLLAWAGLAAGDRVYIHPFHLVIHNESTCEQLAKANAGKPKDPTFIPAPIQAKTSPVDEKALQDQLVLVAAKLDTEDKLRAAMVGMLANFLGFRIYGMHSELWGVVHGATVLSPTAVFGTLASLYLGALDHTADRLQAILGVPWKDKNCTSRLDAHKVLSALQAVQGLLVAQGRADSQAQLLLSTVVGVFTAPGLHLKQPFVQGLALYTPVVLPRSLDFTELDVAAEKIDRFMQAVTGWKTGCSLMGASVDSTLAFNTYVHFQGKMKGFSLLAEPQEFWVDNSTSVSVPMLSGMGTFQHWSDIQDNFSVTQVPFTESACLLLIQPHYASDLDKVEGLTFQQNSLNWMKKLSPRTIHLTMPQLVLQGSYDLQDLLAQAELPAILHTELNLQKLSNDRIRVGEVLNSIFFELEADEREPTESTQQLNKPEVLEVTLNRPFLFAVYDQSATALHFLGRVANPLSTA

B1: ECE-1 (recombinantly produced endothelin converting enzyme-1) (protein)
chain: QYQTRSPSVCLSEACVSVTSSILSSMDPTVDPCHDFFSYACGGWIKANPVPDGHSRWGTFSNLWEHNQAIIKHLLENSTASVSEAERKAQVYYRACMNETRIEELRAKPLMELIERLGGWNITGPWAKDNFQDTLQVVTAHYRTSPFFSVYVSADSKNSNSNVIQVDQSGLGLPSRDYYLNKTENEKVLTGYLNYMVQLGKLLGGGDEEAIRPQMQQILDFETALANITIPQEKRRDEELIYHKVTAAELQTLAPAINWLPFLNTIFYPVEINESEPIVVYDKEYLEQISTLINTTDRCLLNNYMIWNLVRKTSSFLDQRFQDADEKFMEVMYGTKKTCLPRWKFCVSDTENNLGFALGPMFVKATFAEDSKSIATEIILEIKKAFEESLSTLKWMDEETRKSAKEKADAIYNMIGYPNFIMDPKELDKVFNDYTAVPDLYFENAMRFFNFSWRVTADQLRKAPNRDQWSMTPPMVNAYYSPTKNEIVFPAGILQAPFYTRSSPKALNFGGIGVVVGHELTHAFDDQGREYDKDGNLRPWWKNSSVEAFKRQTECMVEQYSNYSVNGEPVNGRHTLGENIADNGGLKAAYRAYQNWVKKNGAEHSLPTLGLTNNQLFFLGFAQVWCSVRTPESSHEGLITDPHSPSRFRVIGSLSNSKEFSEHFRCPPGSPMNPPHKCEVW
Q: For B1, which “cleavage of PACAP(1-27), HPLC” value (PACAP(1-27)) is on record?
A: The value was “None of the aforementioned enzymes was able to cleave PACAP(1-27) under the assay conditions as described above for IGS5”.

B2: His6-tagged IGS5 ectodomain (recombinant soluble His-tagged human IGS5) (protein)
chain: GSHHHHHHSEVCTTPGCVIAAARILQNMDPTTEPCDDFYQFACGGWLRRHVIPETNSRYSIFDVLRDELEVILKAVLENSTAKDRPAVEKARTLYRSCMNQSVIEKRGSQPLLDILEVVGGWPVAMDRWNETVGLEWELERQLALMNSQFNRRVLIDLFIWNDDQNSSRHIIYIDQPTLGMPSREYYFNGGSNRKVREAYLQFMVSVATLLREDANLPRDSCLVQEDMMQVLELETQLAKATVPQEERHDVIALYHRMGLEELQSQFGLKGFNWTLFIQTVLSSVKIKLLPDEEVVVYGIPYLQNLENIIDTYSARTIQNYLVWRLVLDRIGSLSQRFKDTRVNYRKALFGTMVEEVRWRECVGYVNSNMENAVGSLYVREAFPGDSKSMVRELIDKVRTVFVETLDELGWMDEESKKKAQEKAMSIREQIGHPDYILEEMNRRLDEEYSNLNFSEDLYFENSLQNLKVGAQRSLRKLREKVDPNLWIIGAAVVNAFYSPNRNQIVFPAGILQPPFFSKEQPQALNFGGIGMVIGHEITHGFDDNGRNFDKNGNMMDWWSNFSTQHFREQSECMIYQYGNYSWDLADEQNVNGFNTLGENIADNGGVRQAYKAYLKWMAEGGKDQQLPGLDLTHEQLFFINYAQVWCGSYRPEFAIQSIKTDVHSPLKYRVLGSLQNLAAFADTFHCARGTPMHPKERCRVW
Q: B2 was tested. Which % Hydrolysis (100 ng IGS5 polypeptide; 0.5 µM substrate; 2 h, 37° C.) (angiotensin-1, P01019) did it give?
A: The % Hydrolysis (100 ng IGS5 polypeptide; 0.5 µM substrate; 2 h, 37° C.) was 15%.

Q: What about the “% Hydrolysis” value [1] of the same protein?
A: The value was “(?)****”.

Q: And the % Hydrolysis (100 ng IGS5 polypeptide; 0.5 µM substrate; 2 h, 37° C.) (bradykinin, P01042)?
A: The % Hydrolysis (100 ng IGS5 polypeptide; 0.5 µM substrate; 2 h, 37° C.) was 100%.

Q: And the % Hydrolysis (**10 ng IGS5 polypeptide) (bradykinin, P01042)?
A: Its % Hydrolysis (**10 ng IGS5 polypeptide) is 62%.

Q: And the % Hydrolysis [2]?
A: The % Hydrolysis was 41%.

Q: What about the % Hydrolysis (100 ng IGS5 polypeptide; 0.5 µM substrate; 2 h, 37° C.) (substance P, P20366) of the same protein?
A: The % Hydrolysis (100 ng IGS5 polypeptide; 0.5 µM substrate; 2 h, 37° C.) was 100%.

Q: And the % Hydrolysis (100 ng IGS5 polypeptide; 0.5 µM substrate; 2 h, 37° C.) [3]?
A: The % Hydrolysis (100 ng IGS5 polypeptide; 0.5 µM substrate; 2 h, 37° C.) was less than 30%.

Q: And the % Hydrolysis (100 ng IGS5 polypeptide; 0.5 µM substrate; 2 h, 37° C.) [4]?
A: Its % Hydrolysis (100 ng IGS5 polypeptide; 0.5 µM substrate; 2 h, 37° C.) is 5%.

Q: What about the % Hydrolysis (*500 ng IGS5 polypeptide) [4] of the same protein?
A: Its % Hydrolysis (*500 ng IGS5 polypeptide) is 80%.

Q: And the % Hydrolysis (PACAP(1-27))?
A: The % Hydrolysis was 69%.

B3: NEP (recombinantly produced and purified neutral endopeptidase, neprilysin) (protein)
chain: YDDGICKSSDCIKSAARLIQNMDATTEPCTDFFKYACGGWLKRNVIPETSSRYGNFDILRDELEVVLKDVLQEPKTEDIVAVQKAKALYRSCINESAIDSRGGEPLLKLLPDIYGWPVATENWEQKYGASWTAEKAIAQLNSKYGKKVLINLFVGTDDKNSVNHVIHIDQPRLGLPSRDYYECTGIYKEACTAYVDFMISVARLIRQEERLPIDENQLALEMNKVMELEKEIANATAKPEDRNDPMLLYNKMTLAQIQNNFSLEINGKPFSWLNFTNEIMSTVNISITNEEDVVVYAPEYLTKLKPILTKYSARDLQNLMSWRFIMDLVSSLSRTYKESRNAFRKALYGTTSETATWRRCANYVNGNMENAVGRLYVEAAFAGESKHVVEDLIAQIREVFIQTLDDLTWMDAETKKRAEEKALAIKERIGYPDDIVSNDNKLNNEYLELNYKEDEYFENIIQNLKFSQSKQLKKLREKVDKDEWISGAAVVNAFYSSGRNQIVFPAGILQPPFFSAQQSNSLNYGGIGMVIGHEITHGFDDNGRNFNKDGDLVDWWTQQSASNFKEQSQCMVYQYGNFSWDLAGGQHLNGINTLGENIADNGGLGQAYRAYQNYIKKNGEEKLLPGLDLNHKQLFFLNFAQVWCGTYRPEYAVNSIKTDVHSPGNFRIIGTLQNSAEFSEAFHCRKNSYMNPEKKCRVW
Q: B3 was tested. Which “cleavage of PACAP(1-27), HPLC” value (PACAP(1-27)) did it give?
A: The value was “None of the aforementioned enzymes was able to cleave PACAP(1-27) under the assay conditions as described above for IGS5”.

B4: XCE/DINE (recombinantly produced) (protein)
chain: KYLGPVAAGGGACPEGCPERKAFARAARFLAANLDASIDPCQDFYSFACGGWLRRHAIPDDKLTYGTIAAIGEQNEERLRRLLARPGGGPGGAAQRKVRAFFRSCLDMREIERLGPRPMLEVIEDCGGWDLGGAEERPGVAARWDLNRLLYKAQGVYSAAALFSLTVSLDDRNSSRYVIRIDQDGLTLPERTLYLAQDEDSEKILAAYRVFMERVLSLLGADAVEQKAQEILQVEQQLANITVSEHDDLRRDVSSMYNKVTLGQLQKITPHLRWKWLLDQIFQEDFSEEEEVVLLATDYMQQVSQLIRSTPHRVLHNYLVWRVVVVLSEHLSPPFREALHELAQEMEGSDKPQELARVCLGQANRHFGMALGALFVHEHFSAASKAKVQQLVEDIKYILGQRLEELDWMDAETRAAARAKLQYMMVMVGYPDFLLKPDAVDKEYEFEVHEKTYFKNILNSIRFSIQLSVKKIRQEVDKSTWLLPPQALNAYYLPNKNQMVFPAGILQPTLYDPDFPQSLNYGGIGTIIGHELTHGYDDWGGQYDRSGNLLHWWTEASYSRFLRKAECIVRLYDNFTVYNQRVNGKHTLGENIADMGGLKLAYHAYQKWVREHGPEHPLPRLKYTHDQLFFIAFAQNWCIKRRSQSIYLQVLTDKHAPEHYRVLGSVSQFEEFGRAFHCPKDSPMNPAHKCSVW
Q: For B4, which “cleavage of PACAP(1-27), HPLC” value (PACAP(1-27)) is on record?
A: The value was “None of the aforementioned enzymes was able to cleave PACAP(1-27) under the assay conditions as described above for IGS5”.
